The results in this text go back to paper PMC7761029, “Identifying Genes Involved in Alkaloid Biosynthesis in Vinca minor through Transcriptomics and Gene Co-Expression Analysis” (Biomolecules, 2020).

Substrate in series [1]: C[S+](CC[C@H](N)C(=O)O)C[C@H]1O[C@@H](n2cnc3c(N)ncnc32)[C@H](O)[C@@H]1O
Kind of series: purified protein. Particulars: methyl donor, fixed 16-hydroxytabersonine, 1-200 µM SAM, 50 mM potassium phosphate pH 7, 25 mM ascorbic acid, 30 °C.

Substrate in series [2]: [H][C@]12N3CC=C[C@@]1(CC)CC(C(=O)OC)=C1Nc4cc(O)ccc4[C@@]12CC3
Kind of series: initial velocities of 16-methoxytabersonine formation, LC-MS, Michaelis-Menten non-linear regression. It counts as biochemical, Vinca minor. Particulars: fixed SAM, 0.2-100 µM substrate, 50 mM potassium phosphate pH 7, 25 mM ascorbic acid, 30 °C.

B1: Vm16OMT (Vinca minor) (protein)
chain: MDVQSDEFSKAQAHIWSQVLCHIPTATIKCAIELGIPDAIDNHGKAMTLAELTNSLPLINPSKAPFVRRLMRILVKNGFFSEQQITNDHIAYGLTPSSRILLKNEPLNLRGLVLANLDPSHMKSWVALSEWFQNDNEEAKTAFEIAHNGKNFWDYSAEDTEHAEIFNEAMASDSKLVSELLINTEYKLLFEGLTSMVDVGGGTGTIAKAIAKTFPNLNCTVFDLPHVVANLESMGNLEFVAGDMFVKIPPANAIFLKWILHDWNDEDCVKILKACKKAIPEKEKGGKVIVIDTVIGSKINDDESIKAQLSMDMGMMVDFASKERDEKEWASLFKEAGFSNYKIFPKLDFIRSVIEVYP
As to B1, the values for the Michaelis-Menten constant (Km) in series [1] and in series [2] were 46.2 ± 6.1 µM and 0.94 ± 0.06 µM, respectively. The results for the kcat in series [1] and in series [2] were 0.039 s⁻¹ and 0.0144 s⁻¹, respectively.
